Reference: US20240417463A1 (ADAGENE PTE, published 2024)

How the values were obtained:
[1] = molecular target: T1, hCD47-ECD/Fc protein (Sinobiological) (human, UniProt Q08722 19-139, biotinylated in the Octet assay, sites not stated); assay: competition ELISA vs biotin-hSIRPα-ECD/His on coated hCD47-ECD/Fc, experiment 1
T1 construct: extracellular domain; Bought protein; also called human CD47-Fc antigen; recombinant hCD47-ECD/Fc; not shown: Fc part of the bought fusion protein

[2] = molecular target: T1, hCD47-ECD/Fc protein (Sinobiological); assay: BLI (Octet RED96), biotin-hCD47-ECD/Fc on SA sensors, 1:1 model;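 also: test antibodies as analytes, 300 s association then 300 s dissociation in running buffer, with benchmark reference antibodies run as controls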
Experimental: The binding affinity between antibodies and human CD47 was measured through Octet® RED96 System (ForteBio). […] After washing, the sensors were dipped into solutions containing test antibodies for 300 seconds to monitor the association phase, and then were dipped into running buffer for 300 seconds to monitor the dissociation phase. The acquired ForteBio data were processed with Data Acquisition software 7.1, and kinetic data were fitted to a 1:1 Langmuir binding model.

[3] = molecular target: T1, hCD47-ECD/Fc protein (Sinobiological); assay: ELISA, coated hCD47-ECD/Fc
Experimental: After blocking, the plates were washed three times and incubated with test antibodies with serial dilution at 37° C. for 1 hour. Then the plates were washed three times and incubated with HRP-conjugated anti-human Fab secondary antibody (Sigma) at 37° C. for 1 hour. After washing three times, the plates were incubated with TMB substrate for 15 minutes at room temperature. The reaction was stopped by the addition of H2SO4 stop solution. Absorbance at 450 nm was measured by a microplate reader. The data were analyzed by GraphPad Prism 7.0.

T1 sequence (Q08722 19-139 limits assumed): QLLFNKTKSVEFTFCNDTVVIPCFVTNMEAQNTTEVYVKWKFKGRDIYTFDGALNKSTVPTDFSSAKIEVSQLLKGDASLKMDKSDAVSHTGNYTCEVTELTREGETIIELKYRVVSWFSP

Binder	IC50 [1] [nM]	Kd [2] [nM]	koff [2] [s⁻¹]	kon [2] [M⁻¹ s⁻¹]	EC50 [3] [nM]
TY25030 (antibody, V domains shown) VH: EVQLVESGGGLVQPGGSLRLSCAASGYSITSGYYWSWIRQAPGKGLEWIGEIYHSGNTYYNPSLKSRVTISRDNSKNTLYLQLNSLRAEDTAVYYCARRVPLGAFDYWGQGTLVTVSS VL: DIQLTQSPSSLSASVGDRVTITCRASQTVISRYLAWYQQKPGKAPKLLIYDASNLETGVPSRFSGSGSGTDFTLTISSLQPEDFATYYCQQYYAWPLTFGQGTKVEIKR	21.7	4.62	0.00166	361000	2.42
TY25035 (antibody, V domains shown) VH: EVQLVESGGGLVQPGGSLRLSCAASGYSISSGYHWDWIRQAPGKGLEWLARIYWDGDKRYSPSLKSRLTISRDNSKNTLYLQLNSLRAEDTAVYYCARFSDGFDPWGQGTLVTVSS VL: EIVLTQSPATLSLSPGERATLSCRASQSVDFVGISFLHWYQQKPGQAPRLLIYDASNRATGIPARFSGSGSGTDFTLTISSLEPEDFAVYYCVQGLQWPHTFGQGTKVEIKR	60.6	< 0.001	< 1e-07	171000	2.55
TY25041 (antibody, V domains shown) VH: QVQLVQSGAEVKKPGSSVKVSCKASGYSISSGHHWNWIRQAPGQGLEWIGAISYSGSTYYSPSLKSRVTITADKSTSTAYMELSSLRSEDTAVYYCARQGYYGGEGYAVDYWGQGTLVTVSS VL: DIQLTQSPSSLSASVGDRVTITCRASQSVDFYGISFLHWYQQKPGKAPKLLIYDASNRATGIPSRFSGSGSGTDFTLTISSLQPEDFATYYCVQATQTPFTFGQGTKVEIKR	> 100				1.17
TY25033 (antibody, V domains shown) VH: QVQLVQSGAEVKKPGSSVKVSCKASGFTFTSYAIHWVRQAPGQGLEWIGIINPNFGSTNYAQKFQGRVTITADKSTSTAYMELSSLRSEDTAVYYCARYYYGASFDVWGQGTLVTVSS VL: DIQLTQSPSSLSASVGDRVTITCKSGQSLLHGDVKTYLYWYQQKPGKAPKLLIYDASNRATGIPSRFSGSGSGTDFTLTISSLQPEDFATYYCQQYASWPPGFTFGQGTKVEIKR	> 100	< 0.001	< 1e-07	58900	6.11

The remaining lines, values ahead:

IC50 [1] [nM]	Kd [2] [nM]	koff [2] [s⁻¹]	kon [2] [M⁻¹ s⁻¹]	EC50 [3] [nM]	Binder
> 100	0.141	1.37e-05	97300	3.66	TY25039 (antibody, V domains shown) VH: QVQPAQSGAEVKKPGSSVKVSCKASGYSISSGYYWGWIRQAPGQGLEWIGAISYSGSTYYSPSLKSRVTITADKSTSTAYMELSSLRSEDTAVYYCARHYLFAGSTSYDAFDIWGQGTLVTVSS VL: DIQLTQSPSSLSASVGDRVTITCRASQSVDFYGFSFLAWYQQKPGKAPKLLIYDASNRATGIPSRFSGSGSGTDFTLTISSLQPEDFATYYCQQSYRTPLTFGQGTKVEIKR
> 100	1.51	0.000631	417000	0.58	TY25029 (antibody, V domains shown) VH: EVQLVESGGGLVQPGGSLRLSCAASGYTFSNYWIHWVRQAPGKGLEWIGIIYPSSGSTKYAQKFQGRVTISRDNSKNTLYLQLNSLRAEDTAVYYCARDRAPGSSGYYDGFDYWGQGTLVTVSS VL: DIQLTQSPSSLSASVGDRVTITCRASQSVDFHGISFLHWYQQKPGKAPKLLIYDASSLESGVPSRFSGSGSGTDFTLTISSLQPEDFATYYCHQRSTTPLTFGQGTKVEIKR
> 100	< 0.001	< 1e-07	93700	1.71	TY25036 (antibody, V domains shown) VH: QVQLVQSGAEVKKPGSSVKVSCKASGYTFTGYAIHWVRQAPGQGLEWIGWISPSSGSTKYAQKFQGRVTITADKSTSTAYMELSSLRSEDTAVYYCARYGYGPVFDYWGQGTLVTVSS VL: DIQLTQSPSSLSASVGDRVTITCSASSSVTYIYWYQQKPGKAPKLLIYDASNRATGIPSRFSGSGSGTDFTLTISSLQPEDFATYYCQQYTSSPRGFTFGQGTKVEIKR
